In patent publication US7662770:

Biological target: EphA2 receptor tyrosine kinase, endogenous in MCF-10A and MDA-MB-231 human mammary epithelial cells (UniProt P29317)
UniProt P29317, sequence (P29317 whole entry, looked up): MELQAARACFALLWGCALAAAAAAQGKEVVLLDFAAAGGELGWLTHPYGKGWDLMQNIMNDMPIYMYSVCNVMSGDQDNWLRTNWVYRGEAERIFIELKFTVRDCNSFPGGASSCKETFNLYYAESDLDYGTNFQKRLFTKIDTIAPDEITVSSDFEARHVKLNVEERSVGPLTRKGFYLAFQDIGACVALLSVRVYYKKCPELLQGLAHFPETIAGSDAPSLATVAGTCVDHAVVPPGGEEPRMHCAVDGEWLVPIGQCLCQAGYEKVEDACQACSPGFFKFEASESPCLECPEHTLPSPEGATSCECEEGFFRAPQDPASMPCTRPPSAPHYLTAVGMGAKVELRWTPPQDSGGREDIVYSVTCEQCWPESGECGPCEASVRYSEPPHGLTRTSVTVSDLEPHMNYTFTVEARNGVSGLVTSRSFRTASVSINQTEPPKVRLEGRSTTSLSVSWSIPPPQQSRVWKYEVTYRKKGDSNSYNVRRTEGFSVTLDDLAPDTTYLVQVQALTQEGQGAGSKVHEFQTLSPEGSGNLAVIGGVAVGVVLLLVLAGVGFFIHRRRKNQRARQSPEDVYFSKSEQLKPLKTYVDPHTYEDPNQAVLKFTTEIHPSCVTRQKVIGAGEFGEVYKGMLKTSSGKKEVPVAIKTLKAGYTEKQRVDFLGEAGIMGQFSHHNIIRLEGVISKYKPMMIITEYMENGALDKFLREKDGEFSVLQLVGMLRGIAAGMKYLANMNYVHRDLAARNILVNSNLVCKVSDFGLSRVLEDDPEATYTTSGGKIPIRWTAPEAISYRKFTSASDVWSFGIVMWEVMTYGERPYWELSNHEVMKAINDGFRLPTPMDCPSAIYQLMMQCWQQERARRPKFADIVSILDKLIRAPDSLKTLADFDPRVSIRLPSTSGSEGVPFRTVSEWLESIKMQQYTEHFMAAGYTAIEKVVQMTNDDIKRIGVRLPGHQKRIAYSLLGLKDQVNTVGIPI

With “purified LMW-PTP protein (used in the in vitro dephosphorylation assays)” the “dephosphorylation of immunoprecipitated EphA2 (Western blot with PY20 and 4G10)” value was “purified LMW-PTP could dephosphorylate EphA2 in a dose and time-dependent manner”.
